Source: patent US7361133B2, “Methods of detection utilizing modified bacteriophage” (The Johns Hopkins University, priority 1997, dated 2008)

Key:
[1] = molecular target: T1, N-NR1 (NH2-terminal domain of NR1, a.a 1-561) fusion protein (Rattus norvegicus, UniProt P35439); assay: Phage ELISA, binding to immobilized N-NR1 fusion protein; design: Inhibition of Mag-4.1 phage binding to N-NR1 by synthetic peptide: dose or concentration left out as unconfirmed
T1 construct: N-NR1 (aa. 1-561); made in house
Procedure: Phage selection. Six wells of a 96-well plate were precoated with mAb8610 ([…]) at 37° C. for one hour, blocked with 1% BSA for 30 minutes at 37° C. The N-NR1 fusion protein was first released by PIPLC digest after extensive washes of cells that express N-NR1. The released N-NR1 protein in the MEM medium was first treated by endo-F (1 unit per 10 mg protein) for overnight at 37° C. The treated preparation was affinity-purified by mAb8610 capture on the plates (1 mg of N-NR1 per well) at 22° C. for one hour. The phage binding was carried out by incubating with a total of 10^12 tu (transducing units) of a X9 library with a complexity of 1.2×10^10 recombinants. The binding buffer contains 10 mM Tris-HCl (pH 8.1), 100 mM NaCl and 1 mM EDTA for 3 hours at 4° C. Unbound material was removed with three washes of the binding buffer. The bound phagemid particles were recovered by adding […] of 0.1 M glycine-HCl (pH 2.2). After 10 minutes elution at room temperature, the elutes were immediately neutralized by mixing with equal volume of 0.1 M Trisbase (pH 9.2). The recovered phagemids were amplified in bacteria, and resultant phage preparations were used for the following round of purification.
After five consecutive rounds of selection, the ELISA tests were performed using the supernatant of overnight cultures in the presence of 100 mM Hepes-NaOH (pH7.5) and 100 mM NaCl. The wells were coated with receptors according to the procedure described above. The bound phage particles were first detected by using rabbit anti-phage antibody (1:10,000) followed by alkaline phosphatase (AP)-conjugated secondary antibody (1:5,000, Sigma). After washing the wells with the binding buffer, […] of developing solution containing 1 mg/ml pNPP (Sigma, Mo.) in 10 mM diethanolamine-HCl (pH 9.7) was added. The alkaline phosphatase activity was monitored at the wavelength of 408 nm using a microtiter plate reader. Phage purification. The bacteria in culture medium containing phage was removed by centrifugation at 5,000×g for 30 minutes. […]

[2] = molecular target: T2, N-NR1 protein on cell surface of CHO cells (Rattus norvegicus, UniProt P35439); assay: Phage-immunostain of CHO cells expressing N-NR1 on cell surface; assay type: cell-based, Chinese hamster; details: 500 mM Mag-4.1 peptide
T2 construct: N-NR1 (aa. 1-561); expressed in transfected cells
Procedure: (§1) Immunostain and Fluorescence Activated Cell Sorting (FACS). The cells were grown on cover glass coated with 1% gelatin. Prior to addition of immunoglobulin, the cells were first washed three times with cold PBS and fixed with 2% paraformaldehyde (PFA) overnight. After washing the cells with cold PBS, the fixed cells were incubated with mAb8610 (1 mg /ml) at room temperature for 1 hour. The binding of mAb8610 was detected by incubating with anti-mouse conjugated with Texas-red (15 mg per ml) 1 hour at 4C. The immunostain was visualized by a Nikon Optiphot-2 fluorescent microscope and images were collected/digitalized using a computer. Cytometry of stained cells were analyzed on either FACScan or FACStar Plus Sorter (Becton-Dickinson, San Jose, Calif.). An Argon laser is used and tuned at 488 nm. The green fluorescence was recorded in the FLI emission channel.
(§2) Phage-immunostain and Phage-FACS detection. The purified phage preparation was used to stain live cells. For immunostain the cells were washed three times with cold PBS. Phage binding were initiated by incubating with the cells with purified phage (10^10 tu per ml) on ice for 1 hour. […] The phage-binding was detected first by rabbit anti-phage antibody (1:10,000 dilution) followed by Fluorescein labeled anti-rabbit antibody (10 mg/ml, Vector Lab, Calif.). The fluorescence labeled cells were visualized under a fluorescence microscope. […]

[3] = molecular target: T3, N-NR1 protein on CHO cells (Rattus norvegicus, UniProt P35439); assay: Phage-FACS of CHO cells expressing N-NR1; assay type: cell-based, Chinese hamster
T3 construct: N-NR1 (aa. 1-561); expressed in transfected cells
Procedure: as §1, §2

[4] = molecular target: T4, functional NMDA receptor channels (NR1 and NR2A) in HEK cells (Rattus norvegicus, UniProt P35439); assay: Phage-immunostain of HEK cells transiently expressing NR1 and NR2A; assay type: cell-based; details: 500 mM synthetic Mag-4.1 peptide
T4 construct: expressed in transfected cells; host or cells: HEK cells, transient cotransfection
Procedure: Phage-immunostain and Phage-FACS detection. The purified phage preparation was used to stain live cells. For immunostain the cells were washed three times with cold PBS. Phage binding were initiated by incubating with the cells with purified phage (10^10 tu per ml) on ice for 1 hour. After incubation, the unbound phage was removed by three washes of cold PBS supplemented with 1% bovine serum albumin (BSA). the fixation was carried out using 2% PFA overnight at 4C. The phage-binding was detected first by rabbit anti-phage antibody (1:10,000 dilution) followed by Fluorescein labeled anti-rabbit antibody (10 mg/ml, Vector Lab, Calif.). The fluorescence labeled cells were visualized under a fluorescence microscope. For Phage-FACS, the cell preparation procedures were identical except the cells were first dislodged from the dishes by incubating with PBS supplemented with 5 mM EDTA.

[5] = molecular target: N-NR1 fusion protein (putative amino-terminal domain of NR1, a.a 1-561, fused to the mAb8610 epitope tag and GPI anchor signal sequence) (UniProt P35439); assay: phage-overlay on nitrocellulose after denaturation-renaturation

GGGLNDWFITYIGGG [Mag-4.1 peptide]
Affinity of monovalent peptide ([1]; competition phage ELISA (FIG. 1C)): low affinity
Inhibition of Mag-4.1 phage binding to N-NR1 by synthetic peptide ([1]; synthetic peptide, phage ELISA): completely inhibited
Inhibition of phage staining signal by synthetic peptide [2]: completely inhibited
Inhibition of FACS phage stain signal by synthetic peptide, low N-NR1 CHO cells ([3]; 500 mM Mag-4.1 peptide (FIG. 5C)): completely inhibited
Effect of synthetic peptide on FACS staining signal, 1:1 mixture of low and high N-NR1 CHO cells ([3]; 500 mM Mag-4.1 peptide (FIG. 5E)): the staining signal is sensitive to Mag-4.1 peptide
Inhibition of phage stain signal on NR1/NR2A HEK cells by synthetic peptide [4]: completely inhibited

LEAWFLQYI [Mag-4.2]
Phage binding to N-NR1 ([1]; phage ELISA, immobilized N-NR1): specifically association with N-NR1

LNDWFITYI (peptide, not shown: large carriers) [Mag-4.1 phage]
least amount of N-NR1 protein per lane at which specific binding is detected [5]: 20 ng
